Laboratory results taken from US20220048967A1 (published 2022).
Residue numbers refer to the chain shown, from its start. Numbered stars: 1 amine (or outer) side, 2 acyl side, 3 side chain; on linkers, the order of the positions; unused ones are H or OH. Square brackets hold non-standard residues; d marks the D form. Side chains are listed from the residue outwards. Ends that are not written are not given here. * marks the point of attachment. C20 diacid = O=C(O)CCCCCCCCCCCCCCCCCCC(=O)*; C18 diacid = O=C(O)CCCCCCCCCCCCCCCCC(=O)*; γGlu = O=C(O)[C@H](CCC(=O)[*:2])N[*:1]; αMeF = C[C@](N)(Cc1ccccc1)C(=O)O; αMeK = C[C@](N)(CCCCN)C(=O)O; Dab = NCC[C@H](N)C(=O)O; AEEA = NCCOCCOCC(=O)O; Aib = CC(C)(N)C(=O)O

B1: Example 18 (peptide)
peptide: H[Aib]EGTFTSDYSI[αMeF]LDKK([Dab-AEEA-Dab-AEEA-C20 diacid])AQ[αMeK]AFIQYLLA[Aib]GPSSGAPKPS-NH2
B2: Example 17 (peptide)
peptide: H[Aib]EGTFTSDYSILLDKIAQK([AEEA-AEEA-γGlu-C20 diacid])AFIEYLLE[Aib]GPSSG-NH2
modifications: N-terminus assumed
SMILES: CC[C@H](C)[C@H](NC(=O)[C@H](CCCCN)NC(=O)[C@H](CC(=O)O)NC(=O)[C@H](CC(C)C)NC(=O)[C@H](CC(C)C)NC(=O)[C@@H](NC(=O)[C@H](CO)NC(=O)[C@H](Cc1ccc(O)cc1)NC(=O)[C@H](CC(=O)O)NC(=O)[C@H](CO)NC(=O)[C@@H](NC(=O)[C@H](Cc1ccccc1)NC(=O)[C@@H](NC(=O)CNC(=O)[C@H](CCC(=O)O)NC(=O)C(C)(C)NC(=O)[C@@H](N)Cc1c[nH]cn1)[C@@H](C)O)[C@@H](C)O)[C@@H](C)CC)C(=O)N[C@@H](C)C(=O)N[C@@H](CCC(N)=O)C(=O)N[C@@H](CCCCNC(=O)COCCOCCNC(=O)COCCOCCNC(=O)CC[C@H](NC(=O)CCCCCCCCCCCCCCCCCCC(=O)O)C(=O)O)C(=O)N[C@@H](C)C(=O)N[C@@H](Cc1ccccc1)C(=O)N[C@H](C(=O)N[C@@H](CCC(=O)O)C(=O)N[C@@H](Cc1ccc(O)cc1)C(=O)N[C@@H](CC(C)C)C(=O)N[C@@H](CC(C)C)C(=O)N[C@@H](CCC(=O)O)C(=O)NC(C)(C)C(=O)NCC(=O)N1CCC[C@H]1C(=O)N[C@@H](CO)C(=O)N[C@@H](CO)C(=O)NCC(N)=O)[C@@H](C)CC
B3: Example 19 (peptide)
peptide: H[Aib]EGTFTSDYSI[αMeF]LDKK([Dab-AEEA-Dab-AEEA-C20 diacid])AQ[αMeK]AFIQYLLA[Aib]GPSSGAPPPS-NH2
B4: Example 3 (peptide)
peptide: YXEGTXTSDYSIXLDXKAQXEFIXYLIEGGPSSGAPPPS
modifications: Aib2, αMeF(2F)6, αMeL13, Orn16, K17 conjugated to (2-[2-(2-Amino-ethoxy)-ethoxy]-acetyl)2-(γ-Glu)-CO-(CH2)18-CO2H, Aib20, D-Glu24, C-terminal amide (NH2)
B5: Example 323 (peptide)
peptide: B4 peptide with X6F, X16E, E21A, X24E
modifications: Aib2, αMeL13, K17 conjugated to (2-[2-(2-Amino-ethoxy)-ethoxy]-acetyl)2-(γ-Glu)-CO-(CH2)16-CO2H, Aib20, C-terminal amide (NH2)
B6: Example 5 (peptide)
peptide: B4 peptide with Y10V, Y25X
modifications: Aib2, αMeF(2F)6, αMeL13, Orn16, K17 conjugated to (2-[2-(2-Amino-ethoxy)-ethoxy]-acetyl)2-(γ-Glu)-CO-(CH2)16-CO2H, Aib20, D-Glu24, αMeY25, C-terminal amide (NH2)
B7: Example 325 (peptide)
peptide: B4 peptide with X13L, X16K, E21A, X24E
modifications: Aib2, αMeF(2F)6, K17 conjugated to (2-[2-(2-Amino-ethoxy)-ethoxy]-acetyl)2-(γ-Glu)-CO-(CH2)18-CO2H, Aib20, C-terminal amide (NH2)
B8: Example 326 (peptide)
peptide: F[Aib]EGTFTSDYSILLDKK([AEEA-AEEA-γGlu-C20 diacid])AQ[Aib]AFIEYLIEGGPSSGAPPPS-NH2
B9: Example 319 (peptide)
peptide: Y[Aib]EGTFTSDYSILLDKK([AEEA-AEEA-γGlu-C20 diacid])AQ[Aib]EFIEYLIAGGPSSGAPPPS-NH2
modifications: N-terminus assumed
SMILES: CC[C@H](C)[C@H](NC(=O)[C@H](CC(C)C)NC(=O)[C@H](Cc1ccc(O)cc1)NC(=O)[C@H](CCC(=O)O)NC(=O)[C@@H](NC(=O)[C@H](Cc1ccccc1)NC(=O)[C@H](CCC(=O)O)NC(=O)C(C)(C)NC(=O)[C@H](CCC(N)=O)NC(=O)[C@H](C)NC(=O)[C@H](CCCCNC(=O)COCCOCCNC(=O)COCCOCCNC(=O)CC[C@H](NC(=O)CCCCCCCCCCCCCCCCCCC(=O)O)C(=O)O)NC(=O)[C@H](CCCCN)NC(=O)[C@H](CC(=O)O)NC(=O)[C@H](CC(C)C)NC(=O)[C@H](CC(C)C)NC(=O)[C@@H](NC(=O)[C@H](CO)NC(=O)[C@H](Cc1ccc(O)cc1)NC(=O)[C@H](CC(=O)O)NC(=O)[C@H](CO)NC(=O)[C@@H](NC(=O)[C@H](Cc1ccccc1)NC(=O)[C@@H](NC(=O)CNC(=O)[C@H](CCC(=O)O)NC(=O)C(C)(C)NC(=O)[C@@H](N)Cc1ccc(O)cc1)[C@@H](C)O)[C@@H](C)O)[C@@H](C)CC)[C@@H](C)CC)C(=O)N[C@@H](C)C(=O)NCC(=O)NCC(=O)N1CCC[C@H]1C(=O)N[C@@H](CO)C(=O)N[C@@H](CO)C(=O)NCC(=O)N[C@@H](C)C(=O)N1CCC[C@H]1C(=O)N1CCC[C@H]1C(=O)N1CCC[C@H]1C(=O)N[C@@H](CO)C(N)=O
B10: Example 324 (peptide)
peptide: YXEGTFTSDYSIXLDKKAQXAFIEYLIAGGPSSGAPPPS
modifications: Aib2, αMeL13, K17 conjugated to (2-[2-(2-Amino-ethoxy)-ethoxy]-acetyl)2-(γ-Glu)-CO-(CH2)18-CO2H (printed "(CH2)1s"), Aib20, C-terminal amide (NH2)
B11: Example 317 (peptide)
peptide: Y[Aib]EGTFTSDYSILLDKK([AEEA-AEEA-γGlu-C20 diacid])AQ[Aib]AFIEYLIAGGPSSG-NH2
modifications: N-terminus assumed
SMILES: CC[C@H](C)[C@H](NC(=O)[C@H](CC(C)C)NC(=O)[C@H](Cc1ccc(O)cc1)NC(=O)[C@H](CCC(=O)O)NC(=O)[C@@H](NC(=O)[C@H](Cc1ccccc1)NC(=O)[C@H](C)NC(=O)C(C)(C)NC(=O)[C@H](CCC(N)=O)NC(=O)[C@H](C)NC(=O)[C@H](CCCCNC(=O)COCCOCCNC(=O)COCCOCCNC(=O)CC[C@H](NC(=O)CCCCCCCCCCCCCCCCCCC(=O)O)C(=O)O)NC(=O)[C@H](CCCCN)NC(=O)[C@H](CC(=O)O)NC(=O)[C@H](CC(C)C)NC(=O)[C@H](CC(C)C)NC(=O)[C@@H](NC(=O)[C@H](CO)NC(=O)[C@H](Cc1ccc(O)cc1)NC(=O)[C@H](CC(=O)O)NC(=O)[C@H](CO)NC(=O)[C@@H](NC(=O)[C@H](Cc1ccccc1)NC(=O)[C@@H](NC(=O)CNC(=O)[C@H](CCC(=O)O)NC(=O)C(C)(C)NC(=O)[C@@H](N)Cc1ccc(O)cc1)[C@@H](C)O)[C@@H](C)O)[C@@H](C)CC)[C@@H](C)CC)C(=O)N[C@@H](C)C(=O)NCC(=O)NCC(=O)N1CCC[C@H]1C(=O)N[C@@H](CO)C(=O)N[C@@H](CO)C(=O)NCC(N)=O
B12: Example 318 (peptide)
peptide: Y[Aib]EGTFTSDYSILLDKK([AEEA-AEEA-γGlu-C20 diacid])AQ[Aib]EFIEYLIAGGPSSG-NH2
modifications: N-terminus assumed
SMILES: CC[C@H](C)[C@H](NC(=O)[C@H](CC(C)C)NC(=O)[C@H](Cc1ccc(O)cc1)NC(=O)[C@H](CCC(=O)O)NC(=O)[C@@H](NC(=O)[C@H](Cc1ccccc1)NC(=O)[C@H](CCC(=O)O)NC(=O)C(C)(C)NC(=O)[C@H](CCC(N)=O)NC(=O)[C@H](C)NC(=O)[C@H](CCCCNC(=O)COCCOCCNC(=O)COCCOCCNC(=O)CC[C@H](NC(=O)CCCCCCCCCCCCCCCCCCC(=O)O)C(=O)O)NC(=O)[C@H](CCCCN)NC(=O)[C@H](CC(=O)O)NC(=O)[C@H](CC(C)C)NC(=O)[C@H](CC(C)C)NC(=O)[C@@H](NC(=O)[C@H](CO)NC(=O)[C@H](Cc1ccc(O)cc1)NC(=O)[C@H](CC(=O)O)NC(=O)[C@H](CO)NC(=O)[C@@H](NC(=O)[C@H](Cc1ccccc1)NC(=O)[C@@H](NC(=O)CNC(=O)[C@H](CCC(=O)O)NC(=O)C(C)(C)NC(=O)[C@@H](N)Cc1ccc(O)cc1)[C@@H](C)O)[C@@H](C)O)[C@@H](C)CC)[C@@H](C)CC)C(=O)N[C@@H](C)C(=O)NCC(=O)NCC(=O)N1CCC[C@H]1C(=O)N[C@@H](CO)C(=O)N[C@@H](CO)C(=O)NCC(N)=O
B13: Example 304 (peptide)
peptide: YXEGTFTSDYSIXLDKKAQXEFIEYLIEGGPSSG
modifications: Aib2, αMeL13, K17 conjugated to (2-[2-(2-Amino-ethoxy)-ethoxy]-acetyl)2-(γ-Glu)-CO-(CH2)16-CO2H, Aib20, C-terminal amide (NH2)
B14: Example 306 (peptide)
peptide: B13 peptide with E28A
modifications: Aib2, αMeL13, K17 conjugated to (2-[2-(2-Amino-ethoxy)-ethoxy]-acetyl)2-(γ-Glu)-CO-(CH2)16-CO2H, Aib20, C-terminal amide (NH2)
B15: Example 298 (peptide)
peptide: Y[Aib]EGTFTSDYSILLDKK([AEEA-AEEA-γGlu-C18 diacid])AQ[Aib]AFVEYLIEGGPSSG-NH2
modifications: N-terminus assumed
SMILES: CC[C@H](C)[C@H](NC(=O)[C@H](CC(C)C)NC(=O)[C@H](Cc1ccc(O)cc1)NC(=O)[C@H](CCC(=O)O)NC(=O)[C@@H](NC(=O)[C@H](Cc1ccccc1)NC(=O)[C@H](C)NC(=O)C(C)(C)NC(=O)[C@H](CCC(N)=O)NC(=O)[C@H](C)NC(=O)[C@H](CCCCNC(=O)COCCOCCNC(=O)COCCOCCNC(=O)CC[C@H](NC(=O)CCCCCCCCCCCCCCCCC(=O)O)C(=O)O)NC(=O)[C@H](CCCCN)NC(=O)[C@H](CC(=O)O)NC(=O)[C@H](CC(C)C)NC(=O)[C@H](CC(C)C)NC(=O)[C@@H](NC(=O)[C@H](CO)NC(=O)[C@H](Cc1ccc(O)cc1)NC(=O)[C@H](CC(=O)O)NC(=O)[C@H](CO)NC(=O)[C@@H](NC(=O)[C@H](Cc1ccccc1)NC(=O)[C@@H](NC(=O)CNC(=O)[C@H](CCC(=O)O)NC(=O)C(C)(C)NC(=O)[C@@H](N)Cc1ccc(O)cc1)[C@@H](C)O)[C@@H](C)O)[C@@H](C)CC)C(C)C)C(=O)N[C@@H](CCC(=O)O)C(=O)NCC(=O)NCC(=O)N1CCC[C@H]1C(=O)N[C@@H](CO)C(=O)N[C@@H](CO)C(=O)NCC(N)=O

biological target: T1, human GIP receptor (human, UniProt P48546 22-466); assay: cell-based or functional assay
T1 sequence (looked up): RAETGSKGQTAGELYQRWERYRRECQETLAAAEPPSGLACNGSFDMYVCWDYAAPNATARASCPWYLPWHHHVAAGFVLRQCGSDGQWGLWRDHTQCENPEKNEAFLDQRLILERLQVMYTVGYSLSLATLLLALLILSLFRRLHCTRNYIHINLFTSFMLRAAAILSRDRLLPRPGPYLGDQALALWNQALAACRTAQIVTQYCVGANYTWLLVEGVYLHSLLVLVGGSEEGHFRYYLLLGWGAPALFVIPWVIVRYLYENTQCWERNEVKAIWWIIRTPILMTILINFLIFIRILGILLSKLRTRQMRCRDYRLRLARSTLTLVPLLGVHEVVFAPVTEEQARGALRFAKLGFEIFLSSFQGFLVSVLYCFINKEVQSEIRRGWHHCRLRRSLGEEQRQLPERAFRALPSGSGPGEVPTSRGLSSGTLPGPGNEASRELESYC

Binder | hGIPR cAMP EC50 ratio | hGIPR cAMP Rel EC50 [pM]
B1 | 0.275 | 610
B2 | 0.0257 | 5810
B3 | 0.436 | 386

biological target: human GLP-1 receptor (human, UniProt P43220 24-463); assay: cell-based or functional assay

Binder | hGLP1R cAMP EC50 ratio | hGLP1R cAMP Rel EC50 [pM]
B1 | 0.589 | 94.5
B2 | 0.398 | 152
B3 | 0.532 | 104

biological target: human GLP-1 receptor (human, UniProt P43220 24-463); assay: cell-based or functional assay; remark: another data set of the same source

Binder | hGLP1R GTPgS % Top [%] | hGLP1R GTPgS Rel EC50 [pM]
B4 | 95.4 | 421
B5 | 81.9 | 790
B6 | 91.3 | 196
B7 | 97.9 | 414
B8 | 61.6 | 663
B9 | 65.7 | 657
B10 | 84.5 | 475
B11 | 53.7 | 536
B12 | 58.4 | 415
B13 | 77.1 | 561
B14 | 76.1 | 378
B15 | 57.3 | 1030
